Reference: patent publication US20120121506A1 (PHILOGEN S P A, published 2012)

Target: T1, Extra Domain-A (ED-A) isoform of fibronectin in bone marrow biopsies of AML patients (human, UniProt P02751 1722-1811, limits assumed)
T1 construct: The antigen was not used as an isolated protein; It is the native protein in patient tissue sections; also called A-FN; EDA domain of fibronectin
Experiment: immunohistochemistry, bone marrow biopsies of two patients with extramedullary AML, biotinylated SIP 2 ug/ml
Procedure: For immunohistochemistry, biotinylated antibodies were used in small immunoprotein format (SIP) under identical conditions (2 μg/ml). Aliquots were prepared from a single batch of antibodies, frozen and used only once to ensure reproducibility of immunohistochemical stainings. Frozen tissue samples were stored at −80° C. Sections of 10 μm thickness were fixed in chilled acetone, rehydrated in TBS buffer (50 mM Tris, 100 mM NaCl, 0.001% Aprotinin, pH 7.4) and blocked with 20% fetal calf serum in TBS. The antibodies were added onto the sections in a final concentration of 2 μg/mL in 3% bovine serum albumin (BSA)/TBS solution and incubated for one hour. After washing in TBS, bound antibodies were detected with streptavidin-biotinylated alkaline phosphatase complex (Biospa, Milan, Italy) in TBS 3% BSA+2 mM MgCl₂. The Fast Red substrate (Sigma) was used for detection of phosphatase activity. Sections were counterstained with Gill's hematoxylin No. 2 (Sigma) and mounted with Glycergel mounting medium (Dako, Glostrup, Denmark).

T1 sequence (P02751 1722-1811 limits assumed): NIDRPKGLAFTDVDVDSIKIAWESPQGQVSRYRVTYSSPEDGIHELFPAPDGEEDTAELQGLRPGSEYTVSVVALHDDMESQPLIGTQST

B1: F8-SIP (V5L/K18R) (antibody)
chain: EVQLLESGGGLVQPGGSLRLSCAASGFTFSLFTMSWVRQAPGKGLEWVSAISGSGGSTYYADSVKGRFTISRDNSKNTLYLQMNSLRAEDTAVYYCAKSTHLYLFDYWGQGTLVTVSSGGGGSGGGSGGGGGEIVLTQSPGTLSLSPGERATLSCRASQSVSMPFLAWYQQKPGQAPRLLIYGASSRATGIPDRFSGSGSGTDFTLTISRLEPEDFAVYYCQQMRGRPPTFGQGTKVEIKSGGSGGPRAAPEVYAFATPEWPGSRDKRTLACLIQNFMPEDISVQWLHNEVQLPDARHSTTQPRKTKGSGFFVFSRLEVTRAEWEQKDEFICRAVHEAASPSQTVQRAVSVNPESSRRGGC
modifications: biotinylated (sites not given)
notes: Human monoclonal mini-immunoglobulin (small immunoprotein, SIP); It was used biotinylated at 2 ug/ml on tissue sections; also called F8 (V5L/K18R)
- binding result: binds
